Measured values reported in patent US20240029824A1 (University of Washington, published 2024).
Blank lines part the entries; values can stand above or below the binder they belong to.

How the values were obtained:
[1] = target: T1, DHT03 chain C (SEQ ID NO: 59); assay: chains mixed and annealed, SEC, negative stain EM; A3B3C3 ring
T1 chain: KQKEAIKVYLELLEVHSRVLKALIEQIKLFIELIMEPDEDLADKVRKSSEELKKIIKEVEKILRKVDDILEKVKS

DHT01-4arm-01 chain C [2] = target: T2, DHT01-4arm-01 chain C; assay: bicistronic expression, SAXS, negative stain EM; A2B2 ring
T2 construct: also called DHT01-4arm-02 chain C; C2-DHT01-01 chain B
T2 chain: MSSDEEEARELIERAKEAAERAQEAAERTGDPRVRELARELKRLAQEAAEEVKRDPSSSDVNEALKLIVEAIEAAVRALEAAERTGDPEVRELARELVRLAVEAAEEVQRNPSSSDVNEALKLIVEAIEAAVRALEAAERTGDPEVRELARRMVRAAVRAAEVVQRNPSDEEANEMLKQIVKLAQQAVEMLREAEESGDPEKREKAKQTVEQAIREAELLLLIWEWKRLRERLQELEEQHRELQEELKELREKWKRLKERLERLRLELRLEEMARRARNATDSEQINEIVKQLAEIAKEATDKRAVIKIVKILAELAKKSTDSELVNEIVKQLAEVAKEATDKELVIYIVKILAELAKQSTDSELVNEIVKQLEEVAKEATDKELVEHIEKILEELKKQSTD

[3] = target: T1, DHT03 chain C (SEQ ID NO: 59); assay: chains mixed and annealed, SEC, negative stain EM; A4B4C4 ring
DHT01-4arm-01 chain C [4] = target: T2, DHT01-4arm-01 chain C; assay: co-expression, pull-downs, SEC, native MS, SAXS; chains of one ABC heterotrimer
[5] = target: T1, DHT03 chain C (SEQ ID NO: 59); assay: X-ray crystal structure, 3.35 A
Experimental: Purified DHT03_2arm_A21/B21/C (long) protein at a concentration of 41 mg/mL was used to conduct sitting drop, vapor-diffusion crystallization trials using the JCSG Core I-IV screens (NeXtal Biotechnologies). Crystals of DHT03_2arm_A21/B21/C long grew from drops consisting of 100 nL protein plus 100 nL of a reservoir solution consisting of 2M (NH4)2SO4, 0.1M sodium acetate pH4.6 at 18° C., and were cryoprotected by supplementing the reservoir solution with 2.2M sodium malonate pH5. Native diffraction data was collected at APS beamline APS-23-ID-B, indexed to P1 and reduced using XDS⁴⁸. The structure was phased by molecular replacement using Phaser™. The chain A of a set of ˜49 lowest energy predicted models from Rosetta™ were used as search models. Several of these models gave clear solutions. Chain B and Chain C were fitted manually in Coot™ and rigid body refinement by Phenix™. The following model building and refinement were done by Coot™ and Phenix™.

[6] = target: T3, DHT03_3arm_A21/B21/C82 chain C; assay: three components purified separately, mixed equimolar, heat annealed, SEC, negative stain EM
T3 construct: also called chain C DHR82 fusion; chain C of C3-DHT03-01-DHR82 and C4-DHT03-01-DHR82
T3 chain: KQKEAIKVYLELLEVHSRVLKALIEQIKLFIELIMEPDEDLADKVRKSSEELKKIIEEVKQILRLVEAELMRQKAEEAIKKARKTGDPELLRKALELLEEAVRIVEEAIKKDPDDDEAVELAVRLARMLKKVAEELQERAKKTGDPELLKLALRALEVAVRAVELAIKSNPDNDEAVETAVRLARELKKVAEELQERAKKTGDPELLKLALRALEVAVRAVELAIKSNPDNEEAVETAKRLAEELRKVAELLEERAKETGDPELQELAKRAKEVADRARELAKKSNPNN
Description: As is evident from the images in FIGS. 4c and 4d, the cyclic structures retain one of the original heterotrimer helical hairpins in each corner; these short, outward facing protein chains provide fusion points for further elaboration of higher order symmetric assemblies. To evaluate the potential for building up larger nanostructures using the rings as hubs, and explore the modularity of the designed building blocks, we replaced the original outward facing chain C helical hairpin with the chain C DHR82 fusion (as it was the largest 4-repeat DHR) from FIG. 3d, row 8. This was done for two designs (C3-DHT03-01 and C4-DHT03-01), with chain C replaced by fusion C82 through expressing and purifying the three components separately, mixing them in equal molar quantities, and reconstituting using heat annealing.
An AKTA PURE FPLC system was used. Heterotrimer bases, arm extensions, coiled coil C2 rings, and all constructs mentioned in SI were passed through a Cytvia Superdex S200 Increase 10/300 GL column, while C3/C4 rings made from DHT03 were passed through a Cytvia Superdex S6 Increase 10/300 GL column. The mobile phase was TBS (25 mM Tris-HCl pH 8.0, 100 mM NaCl or 25 mM Tris-HCl pH 8.0, 150 mM NaCl). Samples ran at a flow rate of 0.75 ml/min and fractions were collected at 0.5 ml.

[7] = target: T4, DHT05_3arm_A62/B71/C62 chain C; assay: SEC and SAXS; chains of one ABC heterotrimer
T4 chain: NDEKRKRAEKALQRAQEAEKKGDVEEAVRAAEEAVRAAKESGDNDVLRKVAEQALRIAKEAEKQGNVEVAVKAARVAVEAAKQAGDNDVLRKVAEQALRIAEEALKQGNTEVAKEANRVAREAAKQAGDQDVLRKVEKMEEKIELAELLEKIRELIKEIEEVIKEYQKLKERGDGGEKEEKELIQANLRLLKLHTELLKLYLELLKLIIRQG

- binding result (DHT01-4arm-01 chain C [2]): binds
B6: C2-DHT01-02 chain B (designed binder)
chain: DEEEKLRESLEEQKKRVKEIEREHEEIREALKRLQQSVLRQAVRLAKLGDDSEMIQRIVEDLARQAMEATDDREVEKIEKALDELAKNSTDEELKKVIKVAKTLVRVAKLVKEAEELLRQAKEKGSEEDLEKALRTAEEAAREAKKVLEEAEKAQIAEAALLAVELVVRVAELLLRIAKESGSEEALERALRVAEEAARLAKRVLELAEKQGDPEVALRAVELVVRVAELLLRIAKESGSSEALTRAWRVAIEAFQLAVRVLKLAQKQNDSEVARRATELMKRVAELMERIARESGSSAFKAAAEALEAAARTNDKEVVDLARELARLAIEALEEVERNSKSSDVNRALKLILRAIKAAVQLLEHAEKSGDPEVRELARELVRRLVEAAEEVQRNPSDEQKNTQLRRLIAKAEVWLLNEEFKEAEKRFRKLQEETKKALEEVEELNQRFEEALEEVERIKRRQK
notes: two copies in the A2B2 ring

- binding result [1]: binds
- binding result [6]: binds
B7: C3-DHT03-01 chain B (designed binder)
chain: NTHFIVVHGGEEARQLAETAVREISKKEGTEVRFEKKDGLLSIEVKNLSEELQRLIQELLQLLVRLAALLEAVRAVEEAIKRNPDNDEAVETAVRLARELKKVAELLQELAKKAGVPAILRGALLALEVAVRAVELAIKSNPDNDEAVETAVRLAVVKLALEIVQQLPDTELAREALELAKEAVKSTDSEALKVVYLALRIVQQLPDTELARLALELAKKAVEMTAQEVLEIARAALKAAQAFPNTELAELMLRLAEVAARVMKELERNDEEIKKSDELDDESLLEDIVELLKEIIKLWKILVEVSDVMLKLIS
notes: three copies in the A3B3C3 ring; also called C3-DHT03-01-DHR82 chain B

- binding result (DHT01-4arm-01 chain C [2]): binds
B8: C2-DHT01-03 chain A (designed binder)
chain: MGDEEEKLRESLEEQKKRVKEIEREHEEIREALKRLQQSVLRQAVRLAKLGDDSRMIASIIRDLVKQALRATDEREQKKIKKALEELAQNATDEALKLLIEAAKSLLRAAEASERGDEEEFRKAAEKALELAKRLVEIAKKQSLPEFVLAAAEIALAVAELAAKNNDSEVLEKALRSAAEVAQRLLEVAEKENNQELVEEAAKILKRALEIVEKAAKKLKERNDQSSDVNRALTLIRRAQEAADQLLEHARKSGDPEVWELAIRLVARLVEAAAKVAANMSDEQQNTQLRRLIAKAEVWLLNEEFKEAEKRFRKLQEETKKALEEVEELNQRFEEALEEVERIKRRQKGGSGWSHPQFEK
notes: two copies in the A2B2 ring

- binding result [7]: binds
B9: DHT05_3arm_A62/B71/C62 chain B (designed binder)
chain: SEVEKRLLEIHRQVAESHRILVEVHEALIEALRGNSEEAKEKLKELVKKLEKIIRQEELLLQLLEALVKALQAKKEGDPELVLEAAKDALRVAEQAAKEGDKEMFKQAAELALWLAKQLVEVASKEGDPELVLEAAKVALRVAELAAKNGDKEVFKKAAESALEVAKRLVEVASKEGDPELVEEAAKVAEEVRKLAKKQGDEEVYEKARETAREVKEELKRVREEK

- binding result [3]: binds
- binding result [6]: binds
B10: C4-DHT03-01 chain B (designed binder)
chain: MGTTNFHLINGSEEARQLIQKAVEAISKKEGTEVHFEKSDGTLEIRVKNLHPRQEDLIKKFIEALLLALVAKGELEQAEKEGDAEVALRAVEKVVRVAELLLRLAKEAGSEEALKAALEIAEQAARLAARVFTLAVKQNDSDVAKRAVELIKRVAELLKRIAKESGSEEAKERAEKVEKAAEVAEIAARILDQLSNTELAKEALKLASEALKSDIKEALEVVRLALRIVQQLPDTELAREALELAKEAVKSTDSEQLEVVRLALEIVQLAPDTRLARAALKLAKEAVKSTDQEELKKVKAILRVASEVLKLEEEAKKSQEEVERLKQEVEKASKAGLDHEGDSRIFKKIHDVVTKQIKVILRLIAVYAELVAIIG
notes: four copies in the A4B4C4 ring; also called C4-DHT03-01-DHR82 chain B

Continued, binder first:

B1: C3-DHT03-02 chain B (designed binder)
chain: TWQWVLINISEEARQLIEKAVRAISKKEGTEVHFEKDDGVLHIRVKNLHEKRAREIHKVAKLILEVAAAERIVRERPGSNLAKKALEIILRAAEELAKADVDAALEAAVRAAEKVVREQPGSNLAKKALEIILRAAEELAKLPDPEALKEAVKAAEKVVREQPNSELAKKAREIIKRAAEELAKSPDKEAIQEAATALAILIELILSNTELAREAKELATEARKATDSEAAKVVFLALFIVVQLPDTELAKEALELAKEAVKSTDSEALKVVELALEIVQQLPDTELAKEALKLAKEAVKSTDSEALKVVYLALRIVQQLPDTELAREALELAKEAVKSTDSEQLEVVRLALEIVQLAPDTRLARAALKLAKEAVKSTDQEELKKVKAILRVASEVLKLEEEAKKSQEEVERLKQEVEKASKAGLDHEGDSRIFKKIHDVVTKQIKVILRLIAVYAELVAIIG
notes: three copies in the A3B3C3 ring
- binding result [1]: binds

B2: C2-DHT01-01 chain A (designed binder)
chain: DEEEKLRESLEEQKKRVKEIEREHEEIREALKRLQQSVLRQAVRLAKLGDDSEMIRRIVKDLMQQAIEATDEREVEKIKKAAEELSKNSTDEDLKKQIKAVQELVKAVETVREAKKQGDPKKVLKAAEIAMEVATWAAERNDEMIFKLAAKMAKEVAERLKEVAKKENDSALELAAEAIKAAVEALEAALRTGDPRVRELAKELVRLAKEAAEEATRDSKDSDKNEALKLIVEAIKAAVRALEAAERTGDPEVRELARELVRLAVEAAEEVLRNPSSSDVNRALKLIVRAIEAAVQLLEHAEKSGDPEVRELARELVRRLVEAAEEVQRNPSDEQKNTQLRRLIAKAEVWLLNEEFKEAEKRFRKLQEETKKALEEVEELNQRFEEALEEVERIKRRQK
notes: two copies in the A2B2 ring; ring designs kept a C-terminal His-tag in frame
- binding result (DHT01-4arm-01 chain C [2]): binds

B3: C4-DHT03-02 chain B (designed binder)
chain: MGTTNFHLINGSEEARQIIEKIVEEVARKAGTEVHFEKSDGTLEIRVKNLHEELERRIKKAIEAALAAQIAKKLAEQIERQLSNTELAKEAKKLATEAEKARDSEAVQVVLLALEIVQQLPDTELAKEALELAEEAVKSTDSEALKVVKLALEIVQQLPDTELAREALELAKEAVKSTDSEALKVVYLALRIVQQLPDTELARLALELAKKAVEMTAQEVLEIARAALKAAQAFPNTELAELMLRLAEVAARVMKELERNDEEIKKSDELDDESLLEDIVELLKEIIKLWKILVEVSDVMLKLIS
notes: four copies in the A4B4C4 ring
- binding result [3]: binds

B4: DHT01-4arm-01 chain B (designed binder)
chain: SEQERREKAKEEVRELNEEFKEAEKRFRKLQEETKKALEEVEELNQRFQEALTEVAAKKLALEISRVIKTLKESGSSYEEIAEIVARIVAEIVEALKRSGASEKDIATIVAAIISAVIQTLKESGSSYEVIAEIVARIVAEIVEALKRSGTSEDEIAEIVARVISEVIRTLKESGSSYEVIKEIVQRIVEEIVEALKRSGTSEDEINEIVRRVKSEVERTLKESGSS
notes: Strep-tag II was added to the N-terminus of chain B of DHT01 arms
- binding result (DHT01-4arm-01 chain C [4]): binds

B5: DHT03_2arm_A21/B21/C long chain B (designed binder)
chain: SEKEKVEELAQRIREQLPDTELAREAQELADEARKSDDSEALKVVYLALRIVQQLPDTELAREALELAKEAVKSTDSEALKVVELALKIVQQLPDTELAKEALELAKEAVKSTDSEALKVVELALEIVQQLPDTELAKEALKLAKEAVKSTDSEALKVVYLALRIVQQLPDTELAREALELAKEAVKSTDSEQLEVVRLALEIVQLAPDTRLARAALKLAKEAVKSTDQEELKKVKAILRVASEVLKLEEEAKKSQEEVERLKQEVEKASKAGLDHEGDSRIFKKIHDVVTKQIKVILRLIAVYAELVAIIG
- binding result [5]: binds
